Measured values: patent US20150159134A1, “METHOD FOR PRODUCING RETINAL PIGMENT EPITHELIAL CELLS” (PFIZER LIMITED, priority 2013, published 2015)
Entries after “also recorded” stand apart in the source; their conditions may differ.

Assays:
Assay type in all cases: cell-based, human
[1] = test system: Shef-1 hESCs; assay: Induction of RPE markers MITF and PMEL17 by BMP pathway activation (qPCR, immunocytochemistry)
Procedure: This example illustrates the effect of a BMP pathway activator on RPE marker expression. Shef-1 hESCs were seeded onto Matrigel coated 96-well plates at a density of 125000 cells/cm^2. […] Cells for the uninduced control were left untreated. On Day 6, 100 ng/ml BMP4/7 or 100 ng/ml activin A+10 mM Nicotinamide or nothing was added to the media for 3 days. On Day 9, BMP4/7 or activin A and Nicotinamide were withdrawn and cells were treated with DMEM KSRXF alone for 4 days. Samples were prepared for RNA extraction and qPCR analysis.
Immunocytochemistry was carried out in 96-well or 384-well format. Media was aspirated and 50 μL 4% paraformaldehyde (PFA) was added to each well and incubated for 35 minutes at room temperature. PFA was aspirated and cells washed 3×100 uL PBS(+/+). Cells were incubated for 1 hour at room temperature in the dark in blocking buffer (PBS(+/+)/5% normal donkey serum (NDS)/0.3% TritonX100). 1° antibodies were made up in PBS(+/+)/1% normal donkey serum (NDS)/0.3% TritonX100. 60 μL 1° antibody solution was added to each well and incubated for 1 hour at room temperature in the dark. Solution was aspirated and cells washed 3×100 uL PBS(+/+). 2° antibodies were made up in PBS(+/+)/1% normal donkey serum (NDS)/0.3% TritonX100. 60 uL 2° antibody solution was added to each well and incubated for 1 hour at room temperature in the dark. […]

[2] = test system: Shef-1 hESCs; assay: Alternative BMP pathway activators, MITF expression (immunostaining, qPCR); settings: Day 13; BMPs Day 6-9: 50-200 ng/ml BMP4/7 heterodimer, 200 ng/ml BMP4, 300 ng/ml BMP7, 100 ng/ml BMP2/6
Procedure: Shef-1 hESCs were seeded onto Matrigel coated 96-well plates at a density of 125000 cells/cm^2. […] On Day 9, BMPs were withdrawn and cells maintained in DMEM KSRXF alone for 4 days. On Day 13, MITF expression was tested by Immunostaining and qPCR analysis.

[3] = test system: Shef-1 hESCs; assay: First replating step with supplemented media (immunocytochemistry, qPCR)
From the text: Cells replated at Day 12 were maintained from Day 9 to Day 12 in DMEM KSRXF alone before replating. […] Mature RPE cells sample obtained by spontaneous differentiation as disclosed in Example 10 (a) was used as a control to compare the similarity between the populations obtained upon the first replating step of directed differentiation and mature RPE cells. 19 days post replating, cells were fixed for immunocytochemistry and samples were collected for qPCR. […] QPCR analysis with a panel of markers also indicated Day 9 to be the optimum time for replating (FIGS. 4C, 4D and 4E). Similar results were obtained when cells were cultured on different matrices e.g Matrigel, Cellstart or Fibronectin before and after replate.

[4] = test system: WA26 hESCs; assay: Duration of exposure to activin A (CRALBP immunostaining); settings: 100 ng/ml activin A
Procedure: On Day 9, cells were replated into 96 well CellBind plates coated with Matrigel or Cellstart at a density of 500000 cells/cm^2. The cells were maintained in either DMEM KSRXF alone or DMEM KSRXF supplemented with 100 ng/ml activin A for different lengths of time e.g 3 days, 5 days, 10 days or 18 days. At D9-18, cells were fixed for immunostaining and stained for CRALBP, a marker of RPE cells.

[5] = test system: induced pluripotent cells (iPSCs); assay: Directed differentiation of iPSCs (immunostaining); settings: following replating at Day 9 in the presence of Activin A
Procedure: The directed differentiation protocol was performed on induced pluripotent cells (iPSCs). IPSCs were generated from erythroblasts obtained from healthy volunteers and reprogrammed using the CytoTune-iPS Reprogramming kit (Life Technologies, A13780-01/02). IPSCs were seeded in E8 medium at a density of 240000 cells/cm^2 and differentiated to Day 9-19 of the directed differentiation protocol with early replating. Induced cells refer to cells treated with LDN193189/SB-431542 from Day 2 to Day 6 followed by BMP4/7 from Day 6 to Day 9. Uninduced cells are maintained without exposure to both LDN193189/SB-431542 and BMP4/7. Immunostaining was performed for markers of interest. […] Following the second replete step at Day 9-19 and culturing for a period of 45 days, iPSCs derived RPE expressed a panel of RPE markers to similar levels seen in RPE derived by directed differentiation from ES cells as obtained by the protocol of example 8 (see FIGS. 15E, 15F and 15G).

B1: BMP4/7: recombinant BMP4/7 heterodimer protein, BMP pathway activator (protein, UniProt P12644 293-408; P18075 293-431, looked up)
Bone morphogenetic protein 4: SPKHHSQRARKKNKNCRRHSLYVDFSDVGWNDWIVAPPGYQAFYCHGDCPFPLADHLNSTNHAIVQTLVNSVNSSIPKACCVPTELSAISMLYLDEYDKVVLKNYQEMVVEGCGCR
Bone morphogenetic protein 7: STGSKQRSQNRSKTPKNQEALRMANVAENSSSDQRQACKKHELYVSFRDLGWQDWIIAPEGYAAYYCEGECAFPLNSYMNATNHAIVQTLVHFINPETVPKPCCAPTQLNAISVLYFDDSSNVILKKYRNMVVRACGCH
modifications: heterodimer
expression of RPE markers MITF and PMEL17 (immunocytochemistry) ([1]; LDN193189/SB-431542 followed by BMP4/7): confirmed expression of RPE markers
expression of RPE genes MITF and PMEL17 (qPCR) ([1]; added Day 6 for 3 days after 4 days LDN193189/SB-431542, 100 ng/ml BMP4/7 or 100 ng/ml activin A+10 mM Nicotinamide, vs uninduced or LDN193189/SB-431542 only controls): induced expression of RPE genes
MITF expression (immunostaining and qPCR) [2]: induced expression of MITF to a similar level
survival of replated cells ([3]; replated into DMEM KSRXF with 100 ng/ml BMP4/7): did not survive

B2: BMP4: BMP pathway activator (protein, UniProt P12644 293-408, looked up)
Bone morphogenetic protein 4: B1 Bone morphogenetic protein 4
MITF expression (immunostaining and qPCR) [2]: induced expression of MITF to a similar level

B3: BMP7: BMP pathway activator (protein, UniProt P18075 293-431, looked up)
Bone morphogenetic protein 7: B1 Bone morphogenetic protein 7
MITF expression (immunostaining and qPCR) [2]: induced expression of MITF to a similar level

B4: activin A: activin pathway activator (protein, UniProt P08476 311-426, looked up)
Inhibin beta A chain: GLECDGKVNICCKKQFFVSFKDIGWNDWIIAPSGYHANYCEGECPSHIAGTSGSSLSFHSTVINHYRMRGHSPFANLKSCCVPTKLRPMSMLYYDDGQNIIKKDIQNMIVEECGCS
induction of RPE cells differentiation / RPE markers by short exposure [4]: sufficient for inducing RPE cells differentiation; also recorded: sufficient to induce expression of RPE markers
RPE marker CRALBP expression (immunostaining) [5]: upregulated
mature RPE marker expression (CRALBP, MERTK) by immunocytochemistry ([3]; replating at D9, 100 ng/ml activin A, 19 days post replating): optimum and yielded high levels of RPE marker expression
